PMC12208130

Biological target: T1, PTK7 (receptor on HCT116 cells) (human (HCT116 colon cancer cells)) (UniProt Q13308)
T1 sequence: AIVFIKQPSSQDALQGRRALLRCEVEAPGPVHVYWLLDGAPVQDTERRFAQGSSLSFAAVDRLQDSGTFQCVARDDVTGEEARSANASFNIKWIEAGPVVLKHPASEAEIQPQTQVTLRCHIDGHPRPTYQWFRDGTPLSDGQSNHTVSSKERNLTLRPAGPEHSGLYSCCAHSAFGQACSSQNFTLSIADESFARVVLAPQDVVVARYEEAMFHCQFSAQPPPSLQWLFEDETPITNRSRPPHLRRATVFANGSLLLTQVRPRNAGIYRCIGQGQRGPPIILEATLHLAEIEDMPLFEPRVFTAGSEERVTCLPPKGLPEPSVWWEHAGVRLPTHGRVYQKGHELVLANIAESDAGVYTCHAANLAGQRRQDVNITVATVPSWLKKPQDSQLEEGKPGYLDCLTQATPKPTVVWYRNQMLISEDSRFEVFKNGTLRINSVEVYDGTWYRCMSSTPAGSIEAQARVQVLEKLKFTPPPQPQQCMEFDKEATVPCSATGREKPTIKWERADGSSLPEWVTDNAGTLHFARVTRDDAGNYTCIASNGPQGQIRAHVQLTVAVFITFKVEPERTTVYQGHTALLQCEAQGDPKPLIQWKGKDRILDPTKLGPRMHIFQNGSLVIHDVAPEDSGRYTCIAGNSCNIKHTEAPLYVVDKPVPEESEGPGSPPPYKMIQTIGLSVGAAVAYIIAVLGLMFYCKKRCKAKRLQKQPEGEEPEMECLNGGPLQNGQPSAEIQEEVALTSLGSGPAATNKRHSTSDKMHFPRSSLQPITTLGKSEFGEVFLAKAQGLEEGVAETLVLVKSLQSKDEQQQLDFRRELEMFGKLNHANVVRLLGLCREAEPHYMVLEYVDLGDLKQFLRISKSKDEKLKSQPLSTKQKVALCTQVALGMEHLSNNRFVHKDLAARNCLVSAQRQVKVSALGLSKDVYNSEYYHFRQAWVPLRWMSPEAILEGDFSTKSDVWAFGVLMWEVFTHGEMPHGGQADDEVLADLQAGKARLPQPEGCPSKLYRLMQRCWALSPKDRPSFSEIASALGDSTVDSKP
Assay: flow cytometry
Settings: 250 nM aptamer (varied for Kd), 30 min at 4 C, DPBS with ~5 mM MgCl2, 0.1 mg/mL yeast tRNA, 1 mg/mL BSA (a 2.25 g additive in the wash buffer is …)

| Sequence | Kd [nM] | Kd (A23 = cordycepin (3'-deoxyadenosine), 2'-5' linkage) [nM] |
| --- | --- | --- |
| ATCTAACTGCTGCGCCGCCGGGAAAATACTGTACGGTTAGA [Sgc8c (Sgc8-Cy5)] | 5.92 | – |
| ATCTAACTGCTGCGCCGCCGGGAAAATACTGTACGGTTAGA [Sgc8-23A] | – | 6.3 |
